Among the data in publication PMC7046716, “Oligomerization and characteristics of phosphoenolpyruvate carboxylase in Synechococcus PCC 7002” (Scientific Reports, 2020) are Km, stoichiometry N and ratio tetramer:dimer (peak values) (tetramer:dimer) values, retold here.

Test [1] relates to T1, PEPc PCC 7002 (Strep-column purified, mixed oligomer population).
T1 construct: gene ppc; N-terminal Strep-tag kept, E. coli BL21, pETBB; dimer/tetramer mixture purified with Mg2+
The experiment in a line: malate dehydrogenase-coupled NADH assay, […] nm, Hanes-Woolf plot. Format: biochemical, Picosynechococcus sp. PCC 7002. Particulars: pH 7.5, 35 °C, mixed dimer/tetramer.

For test [2], the system named is T2, T_PEPc PCC 7002 (tetramer fraction of PEPc from Synechococcus PCC 7002).
T2 construct: gene ppc; N-terminal Strep-tag kept, E. coli BL21, pETBB
The description is as above. Format: biochemical, Picosynechococcus sp. PCC 7002. Particulars: pH 8.0, 35 °C, SEC tetramer fraction.

Test [3] deals with Phosphoenolpyruvate carboxylase (PEPc) from Synechococcus PCC 7002 (Synechococcus PCC 7002). As to the kind of experiment: SEC; HiLoad 16/60 Superdex 200, 4 °C, TBS pH 8.0 with 10 mM MgCl2, 5 mM NaHCO3 and 5 mM PEP (in vitro reaction); 500 µg protein at 0.87 mg/ml; dimer and tetramer peaks.
For test [4] the target is unchanged. The experiment in a line: SEC; HiLoad 16/60 Superdex 200, 4 °C, TBS pH 8.0 with 10 mM MgCl2 (Mg_10); 500 µg protein at 0.87 mg/ml; dimer and tetramer peaks.
Test [5] shares this target. As to the kind of experiment: SEC-SAXS; Shodex KW-403 4.6 ml column, room temperature, 50 µl protein at 6.5 or 0.87 mg/ml in TBS pH 8.0 or TBS with 25 mM MgCl2; beamline B21, Diamond Light Source; three peaks analysed separately.
For test [6] the target is unchanged. As to the kind of experiment: SEC; HiLoad 16/60 Superdex 200, 4 °C, TBS pH 8.0 with 5 mM NaHCO3; 500 µg protein at 0.87 mg/ml; dimer and tetramer peaks.
For test [7] the target is unchanged. As to the kind of experiment: SEC; HiLoad 16/60 Superdex 200, 4 °C, TBS pH 8.0 with 5 mM NaHCO3 and 5 mM PEP; 500 µg protein at 0.87 mg/ml; dimer and tetramer peaks.
For test [8] the target is unchanged. The experiment in a line: SEC; HiLoad 16/60 Superdex 200, 4 °C, TBS pH 8.0 with 10 mM MgCl2 and 5 mM PEP; 500 µg protein at 0.87 mg/ml; dimer and tetramer peaks.
Test [9] shares this target. As to the kind of experiment: SEC; HiLoad 16/60 Superdex 200, 4 °C, TBS pH 8.0 with 25 mM MgCl2 (Mg_25); 500 µg protein at 0.87 mg/ml; dimer and tetramer peaks.
The target is the same in test [10]. As to the kind of experiment: SEC; HiLoad 16/60 Superdex 200, 4 °C, TBS pH 8.0 with 5 mM PEP; 500 µg protein at 0.87 mg/ml; dimer and tetramer peaks.
For test [11] the target is unchanged. As to the kind of experiment: SEC; HiLoad 16/60 Superdex 200, 4 °C, TBS (100 mM Tris-HCl, 150 mM NaCl) pH 8.0, no addition; 500 µg protein at 0.87 mg/ml, incubated 30 min at room temperature in the same buffer; dimer and tetramer peaks.
For test [12] the target is unchanged. The experiment in a line: SEC; HiLoad 16/60 Superdex 200, 4 °C, TBS pH 8.0 with 10 mM MgCl2 and 5 mM NaHCO3; 500 µg protein at 0.87 mg/ml; dimer and tetramer peaks.
[13] abbreviates: 10 mM MgCl2, co-substrate NaHCO3 (5 mM in the standard assay).
Setting [14] is: 10 mM MgCl2, co-substrate PEP (5 mM in the standard assay).

Where “and” joins values, the source holds several entries; their conditions need not be identical. Equal values may be shown once.

As for `C=C(OP(=O)(O)O)C(=O)O` [PEP], the Km came out at 1060 µM in [1] (setting [13]) and 770 µM in test [2] (setting [13]).
Turning to `O=C(O)O` [HCO3^−], the Michaelis-Menten constant (Km) in [1] (setting [14]) came to 970 µM; in test [2] (setting [14]), 240 µM.
Regarding “Phosphoenolpyruvate carboxylase (PEPc) from Synechococcus PCC 7002 (enzyme)”, the stoichiometry N is 4 and 2 in test [3]; 2 in test [4]; 4 and 2 in [5]; 2 in test [6]; 4 and 2 in test [7]; 4 and 2 in test [8]. In addition, the stoichiometry N in [9] is 4 and 2; in test [10], 4 and 2; in [11], 2; in [12], 4 and 2. Also, the ratio tetramer:dimer (peak values) (tetramer:dimer) in [4] was found to be 0; in test [6], 0; in [7] it was 0.8; in test [8], 1.3; in [9], 1.4; in test [10] it was 1.1. The ratio tetramer:dimer (peak values) (tetramer:dimer) in test [11] stood at 0; in test [12], 0.8.
